Data taken from PMC9029656.

B1: reference wild-type (WT) peptide (unmodified NW peptide) prohibitin 1 (PHB1), endogenous in human blood monocytes [human (endogenous in blood monocytes)] (parent)
chain 1: NWYLPWLGTNDW
chain 2: MAAKVFESIGKFGLALAVAGGVVNSALYNVDAGHRAVIFDRFRGVQDIVVGEGTHFLIPWVQKPIIFDCRSRPRNVPVITGSKDLQNVNITLRILFRPVASQLPRIFTSIGEDYDERVLPSITTEILKSVVARFDAGELITQRELVSRQVSDDLTERAATFGLILDDVSLTHLTFGKEFTEAVEAKQVAQQEAERARFVVEKAEQQKKAAIISAEGDSKAAELIANSLATAGDGLIELRKLEAAEDIAYQLSRSRNITYLPAGQSVLLQLPQ

Variants of: B1
Experiment: flow cytometry competition assay on monocytes
Conditions: with prohibitin 1 (PHB1)
[1] = competitor 2.5 µg/ml, NW peptide 0.05 µg/mL, parent: 50, read off a plot
[2] = competitor 5 µg/ml, NW peptide 0.05 µg/mL, parent: 82, read off a plot
[3] = competitor 10 µg/ml, NW peptide 0.05 µg/mL, parent: 92, read off a plot
[4] = competitor 20 µg/ml, NW peptide 0.05 µg/mL, parent: 95, read off a plot
[5] = competitor 2.5 µg/ml, experimental conditions as in Figure 7, parent: 45, read off a plot
[6] = competitor 20 µg/ml, experimental conditions as in Figure 7, parent: 93, read off a plot
[7] = competitor 5 µg/ml, experimental conditions as in Figure 7, parent: 60, read off a plot
[8] = competitor 10 µg/ml, experimental conditions as in Figure 7, parent: 85, read off a plot

## chain 1 NWYLPWLGANDW
[1]
  screen value: 10%
[2]
  screen value: 20%
[3]
  screen value: 60%
[4]
  screen value: 80%

## chain 1 NWYAPWLGTNDW
[1]
  screen value: 0%
[2]
  screen value: 0%
[3]
  screen value: 2.5%
[4]
  screen value: 0%

## chain 1 NWYLPWLATNDW
[1]
  screen value: 0%
[2]
  screen value: 10%
[3]
  screen value: 45%
[4]
  screen value: 65%

## chain 1 NWALPWLGTNDW
[1]
  screen value: 23%
[2]
  screen value: 54%
[3]
  screen value: 56%
[4]
  screen value: 68%

## chain 1 NYYLPYLGTNDY
[5]
  screen value: 5%
[6]
  screen value: 3%

## chain 1 NAYLPWLGTNDW
[1]
  screen value: 0%
[2]
  screen value: 0%
[3]
  screen value: 0%
[4]
  screen value: 2.5%

## chain 1 NWYLPWLGTNDA
[1]
  screen value: 0%
[2]
  screen value: 9%
[3]
  screen value: 10%
[4]
  screen value: 8%

## chain 1 AWYLPWLGTNDW
[1]
  screen value: 30%
[2]
  screen value: 45%
[3]
  screen value: 67%
[4]
  screen value: 90%

## chain 1 NWYLPWLGTNAW
[1]
  screen value: 47%
[2]
  screen value: 80%
[3]
  screen value: 85%
[4]
  screen value: 98%

## chain 1 NWYLPWAGTNDW
[1]
  screen value: 0%
[2]
  screen value: 0%
[3]
  screen value: 0%
[4]
  screen value: 2.5%

## chain 1 NWYLAWLGTNDW
[1]
  screen value: 0%
[2]
  screen value: 12%
[3]
  screen value: 30%
[4]
  screen value: 65%

## chain 1 NWYLPWLGTADW
[1]
  screen value: 56%
[2]
  screen value: 70%
[3]
  screen value: 86%
[4]
  screen value: 95%

## chain 1 NFYLPFLGTNDF
[7]
  screen value: 7%
[8]
  screen value: 3%
[6]
  screen value: 4%

## chain 1 NWYLPALGTNDW
[1]
  screen value: 0%
[2]
  screen value: 0%
[3]
  screen value: 8%
[4]
  screen value: 12%

## chain 1 NWYVPWVGTNDW
[5]
  screen value: 50%
[7]
  screen value: 55%
[8]
  screen value: 86%
[6]
  screen value: 95%
